One data set concerns the target NTH1 (tobacco). The experiment in a line: two-hybrid; Matchmaker system (Clontech), yeast strain pJ69-2A; StBELs in pACT-AD (GAL4 activation domain), KNOX proteins in pBridge (GAL4-binding domain); co-transformation, selection on -Leu/-Trp/-His/-Ade; lacZ induction quantified by β-galactosidase assay (Miller units), three replicate samples.
The target in data set [1] is POTATO HOMEOBOX1 (POTH1) (potato). The data set is described as above.
The target of another data set is T1, StBEL5-GST;POTH1-GST (Solanum tuberosum (potato);Solanum …, UniProt Q8LLE4;P93588 1-688;1-345, |).
T1 sequence 1: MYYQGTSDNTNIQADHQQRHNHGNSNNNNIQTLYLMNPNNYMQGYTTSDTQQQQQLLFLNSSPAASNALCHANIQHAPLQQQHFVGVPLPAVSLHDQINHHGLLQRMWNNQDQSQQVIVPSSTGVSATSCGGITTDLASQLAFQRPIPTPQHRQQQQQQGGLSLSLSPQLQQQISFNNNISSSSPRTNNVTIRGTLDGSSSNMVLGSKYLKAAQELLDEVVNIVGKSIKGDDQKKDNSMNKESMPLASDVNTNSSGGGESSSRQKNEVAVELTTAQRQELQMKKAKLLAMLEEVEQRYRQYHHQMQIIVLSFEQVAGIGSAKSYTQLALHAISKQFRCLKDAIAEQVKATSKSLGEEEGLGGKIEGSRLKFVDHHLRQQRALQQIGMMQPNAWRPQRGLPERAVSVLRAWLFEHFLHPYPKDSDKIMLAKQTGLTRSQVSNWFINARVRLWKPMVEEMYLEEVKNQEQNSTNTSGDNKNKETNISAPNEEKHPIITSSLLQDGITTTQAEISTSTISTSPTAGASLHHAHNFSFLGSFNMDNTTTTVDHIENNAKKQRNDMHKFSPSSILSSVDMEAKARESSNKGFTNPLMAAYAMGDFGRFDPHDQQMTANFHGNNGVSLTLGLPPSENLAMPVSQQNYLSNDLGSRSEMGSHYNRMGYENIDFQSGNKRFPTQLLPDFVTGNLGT
T1 sequence 2: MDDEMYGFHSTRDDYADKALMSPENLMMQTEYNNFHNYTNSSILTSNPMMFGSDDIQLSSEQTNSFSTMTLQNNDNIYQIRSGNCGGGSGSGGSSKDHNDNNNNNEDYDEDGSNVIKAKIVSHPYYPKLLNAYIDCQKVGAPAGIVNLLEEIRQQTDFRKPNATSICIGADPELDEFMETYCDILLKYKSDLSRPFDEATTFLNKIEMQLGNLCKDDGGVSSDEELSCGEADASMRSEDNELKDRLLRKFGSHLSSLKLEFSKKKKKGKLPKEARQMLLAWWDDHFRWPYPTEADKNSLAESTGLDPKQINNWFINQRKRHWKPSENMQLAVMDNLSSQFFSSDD
As to the kind of experiment: EMSA; 2 mM Mg2+; 20 mM HEPES pH 7.5, 50 mM KCl, 2 mM MgCl2, 0.5 mM EDTA, 1 mM DTT, 10% glycerol, 0.5% Triton X-100, 20 ng/ul BSA, 50 ng/ul poly(dI-dC), 20 ul, on ice 60 min; 10. The note with it: protein: recombinant;recombinant; tags: C-terminal GST;C-terminal GST; copies: 1;1; label: 3' biotin; blunt.

In turn, StBEL6 (natural protein) returned a beta-galactosidase activity with NTH1 (tobacco) of 58 Miller units.
As for “StBEL13 (from UniProt M1AMS7 1-738) (natural protein)”, the beta-galactosidase activity with NTH1 (tobacco) is 233 units.
For the molecule “StBEL31 (from UniProt M0ZWL8 1-423) (natural protein)”, the beta-galactosidase activity with NTH1 (tobacco) was found to be 25 Miller units.
Take “StBEL33 (from UniProt M1C8Y5 1-505) (natural protein)”: in data set [1], the beta-galactosidase activity is 274 units.

B1: StBEL34 bait (BEL34S/BEL34A) (dsDNA)
DNA 1: CCTTTCAATAAGATTATTGACGGTGACAATACTCGCCGTCAAA
DNA 2: TTTGACGGCGAGTATTGTCACCGTCAATAATCTTATTGAAAGG
Consider B1, for which the binding result with StBEL5-GST;POTH1-GST was “binds”.

The record behind these values is publication PMC3904721, “The BEL1-like family of transcription factors in potato”.
